FireProtDB (doi:10.1021/bi991422s)

Conditions: Aspergillus oryzae (strain ATCC 42149 / RIB 40), pH 7, DSC, MOPS 30 mM, reversible: yes, whole UniProt chain shown; for denaturant m value / denaturant midpoint (higher = more stable) / unfolding free energy: Urea

B1: Guanyl-specific ribonuclease T1 wild type, P00651 (protein)
chain: MMYSKLLTLTTLLLPTALALPSLVERACDYTCGSNCYSSSDVSTAQAAGYQLHEDGETVGSNSYPHKYNNYEGFDFSVSSPYYEWPILSSGDVYSGGSPGADRVVFNENNQLAGVITHTGASGNNFVECT
With B1 the denaturant m value (5 °C) was 1.18 kcal/mol/M, the “denaturant midpoint (higher = more stable)” value (“denaturant midpoint” below) (5 °C) was 7.04 M and the unfolding free energy (5 °C) was 8.32 kcal/mol. The denaturant m value (10 °C) was 1.18 kcal/mol/M, the “denaturant midpoint” value (10 °C) was 6.7 M and the unfolding free energy (10 °C) was 7.87 kcal/mol. The denaturant m value (15 °C) was 1.14 kcal/mol/M, the “denaturant midpoint” value (15 °C) was 6.43 M and the unfolding free energy (15 °C) was 7.34 kcal/mol. For the same protein, the denaturant m value (20 °C) was 1.18 kcal/mol/M, the “denaturant midpoint” value (20 °C) was 5.71 M and the unfolding free energy (20 °C) was 6.72 kcal/mol. For the same protein, the denaturant m value (25 °C) was 1.17 kcal/mol/M, the “denaturant midpoint” value (25 °C) was 5.2 M and the unfolding free energy (25 °C) was 6.09 kcal/mol. For the same protein, the Tm (Thermal) was 50.8 °C and the “unfolding enthalpy (calorimetric)” value (Thermal) was 96.6 kcal/mol.
